Data on seven molecules can be found in patent US8936925B2, “Reconstitution of 5-enolpyruvylshikimate-3-phosphate synthase activity by fragment complementation” (priority 2004, dated 2015).

Series [1] relates to aroA gene-mutant E. coli strain AB2829. As to the kind of experiment: In vivo complementation: growth on solid M63 restrictive medium. In kind it is cell-based. Further details: key: −: failed to grow; +: able to grow. The following applies: for complementation condition, N-terminal: N-terminal fragment alone; for complementation condition, C-terminal: C-terminal fragment alone. The essentials: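 aroA-deficient E. coli AB2829 carried plasmids encoding EPSPS N-terminal (pACYC184) and C-terminal (pBR322/pKU2100) fragments, alone or together. Strains were streaked on solid M63 restrictive medium and grown overnight at 37 °C. Growth indicated EPSPS activity by fragment complementation.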

For series [2], the system named is aroA-mutant E. coli strain AB2829. The experiment in a line: Growth in M63 restrictive media with different concentrations of glyphosate. In kind it is cell-based. The protocol: aroA gene-mutant E. coli strains AB 2829 carrying plasmid pKU2004, pKU2006 or pKU2007 were inoculated in liquid LB medium and incubated overnight. A sample of the culture was centrifuged at 4000 rpm for 3 min and re-suspended in 0.9% physiological saline. After a further centrifugation, the supernatant was discarded. The pellets were re-suspended in physiological saline and inoculated at an initial concentration of OD600 0.04 into a liquid media comprising 0, 50 or 100 mM glyphosate for overnight culture at 37° C. Absorption (OD600) was measured at intervals.
In order to test whether the mutated EPSPS fragments perform functional complementation in vivo, plasmid pKU2105 and pKU2333 were constructed, which encode the N-terminal fragments N218-G96A and N227-G96A of E. coli EPSPS, respectively. They were introduced into aroA-mutant E. coli strain AB2829 (aroA−, from Yale University) together with their corresponding plasmids encoding C219 and C228 respectively. The growth was detected in the M63 restrictive media with different concentrations of glyphosate.

Another series concerns EPSPS. How it is done:
(1) 95 μl substrate (50 mmol/L HEPES buffer (pH 7.5), 1 mmol/L PEP, 1 mmol/L S3P) was pre-warmed at 28 °C in an incubator for 5 min.
(2) 5 μl enzyme was added and the reaction was kept in an incubator at 28 °C for 1-20 min (depends on the enzyme activity). After that, 800 μl MG/AM/NP was added and the reaction was mixed for 1 min.
(3) 100 μl 34% sodium citrate was added and the reaction was mixed for half an hour. The OD660 was measured on a spectrometer.
The enzyme activities and the Km values to substrates of these three proteins were measured.

Numbering of substitutions follows the chain as printed. Names may count otherwise. Like-named read-outs stand apart in the source and are kept apart here.

B1: N73: E. coli EPSPS N-terminal fragment, N-terminus to residue 73 (protein, UniProt P0A6D3 1-73, looked up, fragment)
chain: MESLTLQPIARVDGTINLPGSKSVSNRALLLAALAHGKTVLTNLLDSDDVRHMLNALTALGVSYTLSADRTRC
Consider B1, for which the “complementation condition, N-terminal” value in series [1] was “−”.

B2: C68: E. coli EPSPS C-terminal fragment, residue 68 to C-terminus (protein, UniProt P0A6D3 68-427, looked up, fragment)
chain: ADRTRCEIIGNGGPLHAEGALELFLGNAGTAMRPLAAALCLGSNDIVLTGEPRMKERPIGHLVDALRLGGAKITYLEQENYPPLRLQGGFTGGNVDVDGSVSSQFLTALLMTAPLAPEDTVIRIKGDLVSKPYIDITLNLMKTFGVEIENQHYQQFVVKGGQSYQSPGTYLVEGDASSASYFLAAAAIKGGTVKVTGIGRNSMQGDIRFADVLEKMGATICWGDDYISCTRGELNAIDMDMNHIPDAAMTIATAALFAKGTTTLRNIYNWRVKETDRLFAMATELRKVGAEVEEGHDYIRITPPEKLNFAEIATYNDHRMAMCFSLVALSDTPVTILDPKCTAKTFPDYFEQLARISQAA
As for B2, the “complementation condition, C-terminal” value in series [1] is recorded as “−”.

B3: N67: E. coli EPSPS N-terminal fragment, N-terminus to residue 67 (protein, UniProt P0A6D3 1-67, looked up, fragment)
chain: MESLTLQPIARVDGTINLPGSKSVSNRALLLAALAHGKTVLTNLLDSDDVRHMLNALTALGVSYTLS
Consider B3, for which the “complementation condition, N-terminal” value in series [1] was “−”.

B4: EPSPS-G96A (protein, UniProt P0A6D3 1-427, looked up, variant G96A)
3-phosphoshikimate …: MESLTLQPIARVDGTINLPGSKSVSNRALLLAALAHGKTVLTNLLDSDDVRHMLNALTALGVSYTLSADRTRCEIIGNGGPLHAEGALELFLGNAATAMRPLAAALCLGSNDIVLTGEPRMKERPIGHLVDALRLGGAKITYLEQENYPPLRLQGGFTGGNVDVDGSVSSQFLTALLMTAPLAPEDTVIRIKGDLVSKPYIDITLNLMKTFGVEIENQHYQQFVVKGGQSYQSPGTYLVEGDASSASYFLAAAAIKGGTVKVTGIGRNSMQGDIRFADVLEKMGATICWGDDYISCTRGELNAIDMDMNHIPDAAMTIATAALFAKGTTTLRNIYNWRVKETDRLFAMATELRKVGAEVEEGHDYIRITPPEKLNFAEIATYNDHRMAMCFSLVALSDTPVTILDPKCTAKTFPDYFEQLARISQAA
For B4, the “growth in M63 medium containing 50 mM glyphosate” value in series [2] is on record as “grew well”. Further, the “growth in M63 medium containing 100 mM glyphosate” value in series [2] (100 mM glyphosate) is given as “still grew well”.

B5: EPSPS: E. coli wild type full length 5-enolpyruvylshikimate-3-phosphate synthase (protein, UniProt P0A6D3 1-427, looked up)
chain: B4 3-phosphoshikimate … with A96G
modifications: full-length
notes: E. coli wild type full length 5-enolpyruvylshikimate-3-phosphate synthase
In the case of B5, the “growth in M63 medium containing 50 mM glyphosate” value in series [2] is reported as “inhibited from growth”. This molecule also showed a specific activity with EPSPS (PEP and S3P both 1.0 mM) of 44 ± 2 mol/min/mg. Moreover, the Km (as a rule, the substrate concentration at which the rate is half of its maximum) with EPSPS (read-out: Km [PEP], S3P 1 mM, PEP varied from 50 to 200 μM) is 14 ± 3 µM; in the series with EPSPS (read-out: Km [S3P], PEP 1 mM, S3P varied from 50 to 200 μM) it was 45 ± 1 µM.

B6: C74: E. coli EPSPS C-terminal fragment, residue 74 to C-terminus (protein, UniProt P0A6D3 74-427, looked up, fragment)
chain: EIIGNGGPLHAEGALELFLGNAGTAMRPLAAALCLGSNDIVLTGEPRMKERPIGHLVDALRLGGAKITYLEQENYPPLRLQGGFTGGNVDVDGSVSSQFLTALLMTAPLAPEDTVIRIKGDLVSKPYIDITLNLMKTFGVEIENQHYQQFVVKGGQSYQSPGTYLVEGDASSASYFLAAAAIKGGTVKVTGIGRNSMQGDIRFADVLEKMGATICWGDDYISCTRGELNAIDMDMNHIPDAAMTIATAALFAKGTTTLRNIYNWRVKETDRLFAMATELRKVGAEVEEGHDYIRITPPEKLNFAEIATYNDHRMAMCFSLVALSDTPVTILDPKCTAKTFPDYFEQLARISQAA
On to B6, for which the “complementation condition, C-terminal” value in series [1] is reported as “−”.

B7: C32: E. coli EPSPS C-terminal fragment, residue 32 to C-terminus (protein, UniProt P0A6D3 32-427, looked up, fragment)
chain: AALAHGKTVLTNLLDSDDVRHMLNALTALGVSYTLSADRTRCEIIGNGGPLHAEGALELFLGNAGTAMRPLAAALCLGSNDIVLTGEPRMKERPIGHLVDALRLGGAKITYLEQENYPPLRLQGGFTGGNVDVDGSVSSQFLTALLMTAPLAPEDTVIRIKGDLVSKPYIDITLNLMKTFGVEIENQHYQQFVVKGGQSYQSPGTYLVEGDASSASYFLAAAAIKGGTVKVTGIGRNSMQGDIRFADVLEKMGATICWGDDYISCTRGELNAIDMDMNHIPDAAMTIATAALFAKGTTTLRNIYNWRVKETDRLFAMATELRKVGAEVEEGHDYIRITPPEKLNFAEIATYNDHRMAMCFSLVALSDTPVTILDPKCTAKTFPDYFEQLARISQAA
For the molecule B7, the “complementation condition, C-terminal” value in series [1] is on record as “−”.
